Measured values reported in publication PMC8219041, “A transcriptional hub integrating gibberellin–brassinosteroid signals to promote seed germination in Arabidopsis”.

Assays:
GST-BEE2 = biological target: T1, GST-BEE2 (Arabidopsis thaliana, UniProt Q93VJ4 1-304); experiment: EMSA; 1000x cold probe eliminated the shift; 10 mM Tris pH 7.5, 50 mM KCl, 5 mM MgCl2, 1 mM DTT, 2.5% glycerol, 0.5% NP-40, 50 ng poly(dI-dC), 25 fmol probe in 20 ul, room temperature, 45 min; 6% native PAGE; settings: protein: recombinant; tags: GST (N-term, pGEX4T1); chain copies: 2; label: 5' biotin; blunt
T1 sequence: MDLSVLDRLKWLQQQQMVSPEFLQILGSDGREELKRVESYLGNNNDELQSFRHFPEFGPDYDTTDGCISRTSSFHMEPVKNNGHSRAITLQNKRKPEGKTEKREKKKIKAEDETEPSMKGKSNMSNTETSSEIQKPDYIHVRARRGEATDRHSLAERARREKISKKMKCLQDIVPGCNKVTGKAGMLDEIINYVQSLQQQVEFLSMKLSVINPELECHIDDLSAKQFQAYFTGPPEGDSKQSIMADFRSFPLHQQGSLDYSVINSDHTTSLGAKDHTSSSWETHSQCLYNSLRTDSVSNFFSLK

GST-HBI1 = biological target: T2, GST-HBI1 (Arabidopsis thaliana, UniProt Q9ZPW3 1-337); experiment: as above; settings: protein: recombinant; tags: GST (N-term, pGEX4T1); chain copies: 2; label: 5' biotin; blunt
T2 sequence: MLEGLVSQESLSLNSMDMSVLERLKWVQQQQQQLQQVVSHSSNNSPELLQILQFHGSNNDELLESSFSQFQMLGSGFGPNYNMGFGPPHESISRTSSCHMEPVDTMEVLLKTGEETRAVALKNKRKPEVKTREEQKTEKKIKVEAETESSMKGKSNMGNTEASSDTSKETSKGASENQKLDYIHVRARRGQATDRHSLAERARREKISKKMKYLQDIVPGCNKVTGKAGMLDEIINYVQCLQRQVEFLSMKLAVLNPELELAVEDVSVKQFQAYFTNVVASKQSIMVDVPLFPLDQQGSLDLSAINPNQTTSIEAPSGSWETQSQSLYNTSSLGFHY

B1: GASA6 promoter Probe 1 (dsDNA)
DNA 1: CAATTTTTAATCACAAATGCTATTTTATTGGACGACC
DNA 2: GGTCGTCCAATAAAATAGCATTTGTGATTAAAAATTG
- binding result (GST-BEE2): binds
- binding result (GST-HBI1): binds

B2: GASA6 promoter Probe 2 (dsDNA)
DNA 1: GTCTCCCATGTGAGTGCACATGGAGTTATG
DNA 2: CATAACTCCATGTGCACTCACATGGGAGAC
- binding result (GST-BEE2): binds
- binding result (GST-HBI1): binds
